± gives the uncertainty stated by the source.
Assay: self-splicing fitness, log relative to wild type (ln ratio); higher = more splicing; Tetrahymena group I intron in knt gene, E. coli kanamycin selection, DiMSum; sequences stand for … in CUCUCU…GGAGGGAAAAGUUAUCAGGCAUGCACCUGGUAGCUAGUCUUUAAACCAAUAGAUUGCAUCGGUUUAAAAGGCAAGACCGUCAAAUUGCGGGAAAGGGGUCAACAGCCGUUCAGUACCAAGUCUCAGGGGAAACUUUGAGAUGGCCUUGCAAAGGGUAUGGUAAUAAGCUGACGGACAUGGUCCUAACCACGCAGCCAAGUCCUAAGUCAACAGAUCUUCUGUUGAUAUGGAUGCAGUUCACAGACUAAAUGUCGGUCGGGGAAGAUGUAUUCUUCUCAUAAGAUAUAGUCGGACCUCUCCUUAAUGGGAGCUAGCGGAUGAAGUGAUGCAACACUGGAGCCGCUGGGAACUAAUUUGUAUGCGAAAGUAUAUUGAUUAGUUUUGGAGUACUCGUGGUCG
How it was run: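 Colonies from six replicate transformations of E. coli BL21(DE3) were pooled and amplicon-sequenced on an Illumina HiSeq 2500. The library placed an intron with all eight P1ex-region nucleotides randomised inside the knt kanamycin-resistance gene on pET-22b(+), and cells grew overnight at 37°C or 30°C on LB agar with or without 25 μg/mL kanamycin (plus 100 μg/mL carbenicillin, 50 μM IPTG, 0.2% rhamnose). Fitness is the DiMSum error-weighted combination of wild-type-normalised replicate fold changes, kanamycin versus none.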

Row | Sequence | self-splicing fitness (ln) (30 °C) | self-splicing fitness (ln) (37 °C)
1 | UGGAAGCAAUAUUACGUCCA | -2.02 ± 0.39 | 
2 | ACCAAGCAAUAUUACGACGC | -0.493 ± 0.074 | 0.0307 ± 0.098
3 | GAUAAGCAAUAUUACGAGUC | -3.11 ± 0.27 | -1.32 ± 0.17
4 | UAAAAGCAAUAUUACGUCCC | -2.74 ± 0.32 | -0.909 ± 0.24
5 | UUAUAGCAAUAUUACGUAAG | -1.38 ± 0.08 | -0.386 ± 0.11
6 | GAGAAGCAAUAUUACGUUGG | -2.35 ± 0.15 | -2.66 ± 0.21
7 | UGCUAGCAAUAUUACGUUCC |  | -0.823 ± 0.42
8 | GUAAAGCAAUAUUACGAAAU | -0.837 ± 0.078 | -0.128 ± 0.1
9 | GGGAAGCAAUAUUACGUCUU | -0.577 ± 0.09 | -0.159 ± 0.13
10 | CCGUAGCAAUAUUACGACAG | -0.678 ± 0.11 | -0.234 ± 0.13
11 | UGGCAGCAAUAUUACGUGCG | -0.238 ± 0.061 | 0.163 ± 0.084
12 | CUACAGCAAUAUUACGAUCA | -1.82 ± 0.17 | -1.49 ± 0.2
13 | GCGGAGCAAUAUUACGCUGA | -3.01 ± 0.35 | 
14 | GACUAGCAAUAUUACGAAAG | -2.97 ± 0.16 | -1.8 ± 0.2
15 | UGGAAGCAAUAUUACGGGAG | -1.73 ± 0.37 | -2.09 ± 0.25
16 | UCGCAGCAAUAUUACGACUC | -3.5 ± 0.27 | -2.32 ± 0.27
17 | ACCGAGCAAUAUUACGCAUU | -3.91 ± 0.17 | -1.78 ± 0.12
18 | CAGUAGCAAUAUUACGUAGC | -3.32 ± 0.12 | -3.18 ± 0.17
19 | AUUGAGCAAUAUUACGUACG | -3.25 ± 0.29 | -1.53 ± 0.26
20 | CUCUAGCAAUAUUACGUGUA | -3.62 ± 0.21 | -4.02 ± 0.27
21 | CUCCAGCAAUAUUACGGGAG | -3.68 ± 0.15 | -1.91 ± 0.16
22 | CCUCAGCAAUAUUACGUAGA | -3.97 ± 0.28 | -2.8 ± 0.3
23 | CGCGAGCAAUAUUACGCGCG |  | -2.07 ± 0.29
24 | UCAAAGCAAUAUUACGUACA | -1.2 ± 0.14 | -0.562 ± 0.16
25 | CGAGAGCAAUAUUACGACUG | -1.29 ± 0.15 | -0.27 ± 0.19

Row | Sequence | self-splicing fitness (ln) (30 °C) | self-splicing fitness (ln) (37 °C)
26 | CUUUAGCAAUAUUACGUCAC |  | -0.481 ± 0.4
27 | UCUAAGCAAUAUUACGUUUU | -3.43 ± 0.19 | -3.06 ± 0.29
28 | GGACAGCAAUAUUACGGUCG | -1.1 ± 0.092 | -0.39 ± 0.14
29 | UAGCAGCAAUAUUACGGGAA | -2.47 ± 0.19 | -1.41 ± 0.18
30 | GUAGAGCAAUAUUACGCUCU | -3.31 ± 0.43 | 
31 | GGGAAGCAAUAUUACGCUGU | -2.38 ± 0.14 | -1.45 ± 0.16
32 | UUGGAGCAAUAUUACGUUAC | -3.66 ± 0.33 | -2.25 ± 0.24
33 | CCCAAGCAAUAUUACGCCGC | -2.08 ± 0.37 | -1.07 ± 0.4
34 | CCGUAGCAAUAUUACGGAGU | -2.68 ± 0.16 | -2.33 ± 0.22
35 | GUGAAGCAAUAUUACGGUGG | -1.97 ± 0.098 | -1.78 ± 0.16
36 | UAGCAGCAAUAUUACGUGAG | -0.937 ± 0.035 | -0.228 ± 0.056
37 | AUGUAGCAAUAUUACGCGGC | -4.15 ± 0.4 | -3.45 ± 0.27
38 | GUUUAGCAAUAUUACGCGGA | -1.9 ± 0.24 | -1.82 ± 0.37
39 | AGAGAGCAAUAUUACGGCCG | -3.41 ± 0.36 | -1.39 ± 0.28
40 | CGUCAGCAAUAUUACGAUCG | -1.74 ± 0.093 | -1.61 ± 0.11
41 | UUCAAGCAAUAUUACGUCUU |  | -3.54 ± 0.33
42 | AGCUAGCAAUAUUACGAGGC | -3.21 ± 0.24 | -1.96 ± 0.21
43 | AGCUAGCAAUAUUACGAGAU | -3.17 ± 0.19 | -1.22 ± 0.16
44 | GGGGAGCAAUAUUACGUCUU | -1.91 ± 0.12 | -0.96 ± 0.18
45 | AAGAAGCAAUAUUACGAGAA | -2.07 ± 0.26 | -1.87 ± 0.19
46 | CGAUAGCAAUAUUACGUAUG | -1.22 ± 0.071 | -0.164 ± 0.096
47 | AUGAAGCAAUAUUACGCGAU | -2.89 ± 0.21 | -1.59 ± 0.23
48 | AAACAGCAAUAUUACGAAAA | -2.95 ± 0.15 | -1.8 ± 0.14
49 | UACGAGCAAUAUUACGAGUA | -2.84 ± 0.15 | -2.52 ± 0.15
50 | UUAAAGCAAUAUUACGUACC | -1.73 ± 0.12 | -0.333 ± 0.16

Row | Sequence | self-splicing fitness (ln) (30 °C) | self-splicing fitness (ln) (37 °C)
51 | AAAAAGCAAUAUUACGCUUU | -4.64 ± 0.27 | -2.32 ± 0.19
52 | CCGUAGCAAUAUUACGCAAC | -4.04 ± 0.26 | -2.13 ± 0.21
53 | GUUGAGCAAUAUUACGUAAA | -2.7 ± 0.2 | -1.73 ± 0.19
54 | CCUGAGCAAUAUUACGUGUC | -4.13 ± 0.21 | -2 ± 0.13
55 | UUUUAGCAAUAUUACGCAUG | -1.3 ± 0.12 | -0.672 ± 0.13
56 | UCUAAGCAAUAUUACGAGAU |  | -0.699 ± 0.22
57 | GCAGAGCAAUAUUACGGGUA | -3.16 ± 0.18 | -3.68 ± 0.33
58 | ACCAAGCAAUAUUACGGACG | -1.09 ± 0.069 | -0.0232 ± 0.083
59 | UGCCAGCAAUAUUACGGGGA | -1.8 ± 0.087 | -0.863 ± 0.11
60 | CCCAAGCAAUAUUACGUUAU | -4.09 ± 0.2 | -2.96 ± 0.19
61 | UACUAGCAAUAUUACGAUCC | -3.14 ± 0.36 | -2.84 ± 0.38
62 | ACUGAGCAAUAUUACGCUCG | -2.59 ± 0.24 | -1.59 ± 0.23
63 | UAAGAGCAAUAUUACGUCAG | -3.04 ± 0.25 | -2.33 ± 0.33
64 | AGAUAGCAAUAUUACGCCCG | -0.427 ± 0.23 | -0.478 ± 0.24
65 | CAUAAGCAAUAUUACGAAAA |  | -3.32 ± 0.34
66 | CUGGAGCAAUAUUACGGAAA | -2.47 ± 0.33 | -2.78 ± 0.35
67 | GAAGAGCAAUAUUACGGGAA | -3.54 ± 0.47 | -1.72 ± 0.28
68 | CGUUAGCAAUAUUACGACGG | 0.168 ± 0.13 | -0.377 ± 0.12
69 | CCCGAGCAAUAUUACGGUCC | -2.99 ± 0.26 | -2.61 ± 0.22
70 | GGUGAGCAAUAUUACGCCCU | -1.66 ± 0.41 | 
71 | AAUGAGCAAUAUUACGCUGC |  | -1.24 ± 0.24
72 | AAGUAGCAAUAUUACGAUAU | -1.21 ± 0.066 | -0.506 ± 0.084
73 | GGUCAGCAAUAUUACGGGAA | -1.5 ± 0.16 | -0.702 ± 0.15
74 | UGCUAGCAAUAUUACGAAUA | -1.27 ± 0.13 | -1.16 ± 0.12
75 | GUCUAGCAAUAUUACGCCUA | -0.955 ± 0.31 | -0.323 ± 0.27

Row | Sequence | self-splicing fitness (ln) (30 °C) | self-splicing fitness (ln) (37 °C)
76 | ACUAAGCAAUAUUACGUAGG | -1.4 ± 0.074 | -0.98 ± 0.1
77 | CUCCAGCAAUAUUACGACCU | -3.4 ± 0.32 | 
78 | UACAAGCAAUAUUACGCGUG | -2.09 ± 0.11 | -1.37 ± 0.098
79 | AGGGAGCAAUAUUACGUCCA | -1.11 ± 0.27 | -0.389 ± 0.33
80 | CAAUAGCAAUAUUACGAUGG | -1.09 ± 0.074 | -0.114 ± 0.096
81 | ACAAAGCAAUAUUACGACUU | -0.336 ± 0.06 | 0.0905 ± 0.079
82 | UAGAAGCAAUAUUACGUCUU | -1.18 ± 0.072 | -0.782 ± 0.085
83 | CAUUAGCAAUAUUACGAAAU | -3.12 ± 0.29 | -2.37 ± 0.28
84 | ACCAAGCAAUAUUACGUUCU | -1.56 ± 0.06 | -0.915 ± 0.076
85 | UAGCAGCAAUAUUACGUUUU | -2.6 ± 0.12 | -2.31 ± 0.19
86 | CAUGAGCAAUAUUACGCGCU | -3.58 ± 0.42 | -2.21 ± 0.4
87 | CUCCAGCAAUAUUACGUACU | -3.3 ± 0.29 | -3.21 ± 0.28
88 | AAAGAGCAAUAUUACGUUAG | -3.49 ± 0.15 | -3.11 ± 0.25
89 | GUAAAGCAAUAUUACGCCUG | -0.223 ± 0.15 | 0.555 ± 0.17
90 | UGAUAGCAAUAUUACGGCAA | -1.36 ± 0.15 | -0.418 ± 0.15
91 | GUAAAGCAAUAUUACGCUGG | -0.164 ± 0.086 | -0.981 ± 0.14
92 | CCUUAGCAAUAUUACGGGUG | -1.5 ± 0.065 | -0.759 ± 0.081
93 | GUUGAGCAAUAUUACGAUUC | -0.993 ± 0.12 | 0.00124 ± 0.2
94 | UGGCAGCAAUAUUACGUUCA | -0.133 ± 0.084 | 0.272 ± 0.1
95 | CGAGAGCAAUAUUACGAUAA | -4.29 ± 0.46 | -2.37 ± 0.45
96 | AAGGAGCAAUAUUACGACCA |  | -1.82 ± 0.31
97 | ACAAAGCAAUAUUACGAUGC | -1.61 ± 0.11 | -1.9 ± 0.15
98 | UGGCAGCAAUAUUACGCAAC | -2.74 ± 0.18 | -2.14 ± 0.39
99 | AAUCAGCAAUAUUACGGGAC | -3.57 ± 0.18 | -1.4 ± 0.096

From the supplement of paper PMC7877785
